Source: patent US20240197828A1, “Chimeric molecule to treat sepsis and other inflammatory conditions” (THE FEINSTEIN INSTITUTES FOR MEDICAL RESEARCH, priority 2022, published 2024)

Target: T1, rhCIRP (Homo sapiens, UniProt Q14011)
T1 sequence (Q14011 1-172): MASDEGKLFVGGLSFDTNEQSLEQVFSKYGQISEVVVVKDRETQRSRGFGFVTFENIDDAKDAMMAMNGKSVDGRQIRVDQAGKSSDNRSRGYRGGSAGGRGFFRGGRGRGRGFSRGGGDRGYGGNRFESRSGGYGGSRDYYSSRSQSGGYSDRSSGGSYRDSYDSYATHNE
Test: Biacore binding of recombinant human proteins (rhCIRP and rhMFG-E8)
Conditions: read-out: KD between rhCIRP and rhMFG-E8

Kd: 29 nM
B1: rhMFG-E8: recombinant human MFG-E8 (protein)
chain: LDICSKNPCHNGGLCEEISQEVRGDVFPSYTCTCLKGYAGNHCETKCVEPLGLENGNIANSQIAASSVRVTFLGLQHWVPELARLNRAGMVNAWTPSSNDDNPWIQVNLLRRMWVTGVVTQGASRLASHEYLKAFKVAYSLNGHEFDFIHDVNKKHKEFVGNWNKNAVHVNLFETPVEAQYVRLYPTSCHTACTLRFELLGCELNGCANPLGLKNNSIPDKQITASSSYKTWGLHLFSWNPSYARLDKQGNFNAWVAGSYGNDQWLQVDLGSSKEVTGIITQGARNFGSVQFVASYKVAYSNDSANWTEYQDPRTGSSKIFPGNWDNHSHKKNLFETPILARYVRILPVAWHNRIALRLELLGC
